Experimental data as given in publication PMC4150770.

What was measured:
[1] = target: 43S·mRNA preinitiation complex assembled with eIF5-G31R,M18V (yeast) (UniProt P32911); assay: fluorescence polarisation; dissociation kinetics by fluorescence anisotropy, 43S·mRNA(UUG) complexes: 15 nM eIF1A-Fl, 1 μM eIF1, 1 μM eIF5 variant, 120 nM 40S, 10 μM mRNA(UUG), 300 nM eIF2, 150 nM Met-tRNAi, 1 mM GDPNP·Mg2+; chase with 15 μM unlabeled eIF1A; 30 mM HEPES pH 7.4, 100 mM potassium acetate, 3 mM Mg(OAc)2, 2 mM DTT; double exponential fit (k1 fast phase, open state; k2 slow phase, closed state)
[2] = target: 43S·mRNA preinitiation complex assembled with eIF5-G31R (yeast) (UniProt P32911); assay: as above
[3] = target: 43S·mRNA preinitiation complex assembled with eIF5-G31R,G62S (yeast) (UniProt P32911); assay: as above
[4] = target: 43S·mRNA preinitiation complex assembled with eIF5-G62S (yeast) (UniProt P32911); assay: as above
[5] = target: 43S·mRNA preinitiation complex assembled with eIF5-M18V (yeast) (UniProt P32911); assay: as above
[6] = target: 43S·mRNA preinitiation complex assembled with WT eIF5 (40S subunits, eIF1, eIF5, eIF2·GDPNP·Met-tRNAi ternary complex, model mRNA) (yeast) (UniProt P32911); assay: as above
[7] = target: 43S·mRNA preinitiation complex assembled with eIF5-G31R,M18V (yeast) (UniProt P32911); assay: fluorescence polarisation; dissociation kinetics by fluorescence anisotropy, 43S·mRNA(AUG) complexes: 15 nM eIF1A-Fl, 1 μM eIF1, 1 μM eIF5 variant, 120 nM 40S, 10 μM mRNA(AUG), 300 nM eIF2, 150 nM Met-tRNAi, 1 mM GDPNP·Mg2+; chase with 15 μM unlabeled eIF1A; 30 mM HEPES pH 7.4, 100 mM potassium acetate, 3 mM Mg(OAc)2, 2 mM DTT; double exponential fit (k1 fast phase, open state; k2 slow phase, closed state)
[8] = target: 43S·mRNA preinitiation complex assembled with eIF5-G31R (yeast) (UniProt P32911); assay: as above
[9] = target: 43S·mRNA preinitiation complex assembled with eIF5-G31R,G62S (yeast) (UniProt P32911); assay: as above
[10] = target: 43S·mRNA preinitiation complex assembled with eIF5-G62S (yeast) (UniProt P32911); assay: as above
[11] = target: 43S·mRNA preinitiation complex assembled with eIF5-M18V (yeast) (UniProt P32911); assay: as above
[12] = target: 43S·mRNA preinitiation complex assembled with WT eIF5 (40S subunits, eIF1, eIF5, eIF2·GDPNP·Met-tRNAi ternary complex, model mRNA) (yeast) (UniProt P32911); assay: as above

k1 (dissociation rate constant, fast phase, open state) [1]: 0.018 s⁻¹
k2 (dissociation rate constant, slow phase, closed state) [1]: 0.0003 s⁻¹
k1 (dissociation rate constant, fast phase, open state) [2]: 0.008 s⁻¹
k2 (dissociation rate constant, slow phase, closed state) [2]: 0.0005 s⁻¹
k1 (dissociation rate constant, fast phase, open state) [3]: 0.026 s⁻¹
k2 (dissociation rate constant, slow phase, closed state) [3]: 0.004 s⁻¹
k1 (dissociation rate constant, fast phase, open state) [4]: 0.025 s⁻¹
k2 (dissociation rate constant, slow phase, closed state) [4]: 0.002 s⁻¹
k1 (dissociation rate constant, fast phase, open state) [5]: 0.011 s⁻¹
k2 (dissociation rate constant, slow phase, closed state) [5]: 0.0012 s⁻¹
k1 (dissociation rate constant, fast phase, open state) [6]: 0.011 s⁻¹
k2 (dissociation rate constant, slow phase, closed state) [6]: 0.0011 s⁻¹
k1 (dissociation rate constant, fast phase, open state) [7]: 0.025 s⁻¹
k2 (dissociation rate constant, slow phase, closed state) [7]: 0.002 s⁻¹
k1 (dissociation rate constant, fast phase, open state) [8]: 0.016 s⁻¹
k2 (dissociation rate constant, slow phase, closed state) [8]: 0.005 s⁻¹
k1 (dissociation rate constant, fast phase, open state) [9]: 0.018 s⁻¹
k2 (dissociation rate constant, slow phase, closed state) [9]: 0.003 s⁻¹
k1 (dissociation rate constant, fast phase, open state) [10]: 0.018 s⁻¹
k2 (dissociation rate constant, slow phase, closed state) [10]: 0.003 s⁻¹
k1 (dissociation rate constant, fast phase, open state) [11]: 0.003 s⁻¹
k2 (dissociation rate constant, slow phase, closed state) [11]: 0.0003 s⁻¹
k1 (dissociation rate constant, fast phase, open state) [12]: 0.007 s⁻¹
k2 (dissociation rate constant, slow phase, closed state) [12]: 0.0004 s⁻¹
Substance: eIF1A labeled at its C-terminus with fluorescein (from UniProt P38912 1-153) (natural protein)
